Assay [1] addresses T1, Mouse MSLN (Mus musculus, UniProt Q61468).
T1 construct: also called murine mesothelin
T1 sequence (target, looked up): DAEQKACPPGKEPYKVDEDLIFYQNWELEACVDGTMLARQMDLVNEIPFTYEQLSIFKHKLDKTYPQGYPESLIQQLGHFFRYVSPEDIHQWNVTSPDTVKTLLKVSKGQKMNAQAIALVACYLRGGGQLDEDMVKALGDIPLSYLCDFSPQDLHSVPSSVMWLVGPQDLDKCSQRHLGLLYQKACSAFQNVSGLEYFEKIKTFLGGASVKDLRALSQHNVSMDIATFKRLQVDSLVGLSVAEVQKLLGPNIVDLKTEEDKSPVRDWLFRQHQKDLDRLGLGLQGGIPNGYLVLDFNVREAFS
Briefly: FACS on 293T cells transiently expressing the orthologue.
Protocol: (§1) FACs assays were performed by incubating hybridoma supernatants with 10,000 to 25,000 cells in PBS/2% Fetal bovine serum/2 mM Calcium Chloride at 4° C. for one hour followed by two washes with PBS/2% Fetal bovine serum/2 mM Calcium Chloride. Cells were then treated with florochrome-labeled secondary antibodies at 4° C. followed by one wash. The cells were resuspended in 50 μl of PBS/2% FBS and antibody binding was analyzed using a FACSCalibur™ instrument.

Assay [2] addresses T2, Rat MSLN (Rattus norvegicus, UniProt Q9ERA7).
T2 construct: also called rat mesothelin
T2 sequence (target, looked up): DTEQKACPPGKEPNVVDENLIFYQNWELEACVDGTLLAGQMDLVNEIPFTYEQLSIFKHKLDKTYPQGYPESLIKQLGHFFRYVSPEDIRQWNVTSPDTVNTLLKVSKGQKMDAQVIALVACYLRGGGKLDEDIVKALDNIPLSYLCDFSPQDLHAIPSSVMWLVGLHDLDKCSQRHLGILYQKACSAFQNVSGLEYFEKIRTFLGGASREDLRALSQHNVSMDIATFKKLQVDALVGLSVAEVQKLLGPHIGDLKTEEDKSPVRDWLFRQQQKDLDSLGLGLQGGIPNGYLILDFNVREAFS
The assay is described as above.
Protocol: as §1

B1: 158.3 (antibody, V domains shown)
VH: QVQLQESGPGLVKPSETLSLTCTVSGGSIISHYWSWIRQPPGKGLEWIGYIYYSGSTNYNPSLKSRVTISVDTSKNQFSLKLTSVTAADTAVYYCARDGWSAFDYWGQGTLVTVSS
VL: DIQMTQSPSSLSASVGDRVTITCRASQGIRNALGWYQQKPGKAPKRLIYAASSLQSGVPSRFSGSGSGTEFTLTISSLQPEDFATYYCLQHNSYPRTFGQGTKVEIRR
notes: also called 1.58.3 g1; 1.58.3 g2
As to B1, the binding result in assay [1] is given as “no binding”.

B2: 151 (antibody, V domains shown)
VH: QVQLQESGPGLVKPSETLSLTCTVSGGSISSYYWSWIRQPPGKGLEWIGYIYYSGSTNYNPSLKSRVTISVDTSKNQFSLKLSSVTAADTAVYYCARVDYKAFDIWGQGTMVTVSS
VL: DIQMTQSPSSLSASVGDRVTITCRASQGIRNDLHWYQQKPGKAPKRLIYAASSLQSGVPSRFSGSGSGTEFTLTISSLQPEDFATYYCLQHYSYPWTFGQGTKVEIK
notes: also called Ab1.51
Consider B2, for which the binding result in assay [1] was “no binding”.

B3: Ab237 (Hu-anti-huMesothelin-2.37-IgG1) (antibody, V domains shown)
VH: QVQLQESGPGLVKPSQTLSLTCTVSGGSINNNNYYWTWIRQHPGKGLEWIGYIYYSGSTFYNPSLKSRVTISVDTSKTQFSLKLSSVTAADTAVYYCAREDTMTGLDVWGQGTTVTVSS
VL: DIQMTQSPSSLSASVGDRVTITCRASQSINNYLNWYQQKPGKAPTLLIYAASSLQSGVPSRFSGSRSGTDFTLTISSLQPEDFAAYFCQQTYSNPTFGQGTKVEVK
notes: Fully human antibody from XenoMouse; Only the variable domains are tied to Ab237
Regarding B3, the binding result in assay [1] and in assay [2] was “binds” each time.

These data come from patent US20210380714A1 (Amgen, published 2021).
